Test results from patent US20120302734A1 (COMMONWEALTH SCIENTIFIC AND INDUSTRIAL RESEARCH ORGANISATION, published 2012).

Biological target: the molecule itself
Assay: dynamic light scattering after SDS removal, against 9.2 nm for the monomeric SDS-protein solution; self-association
Method: The AmelF3 honeybee silk protein was expressed into the inclusion bodies of E. coli. AmelF3 inclusion bodies were unfolded using equivalent dry weight of the detergent sodium dodecyl sulphate (SDS) to generate 2-4% monomeric protein solutions. Dynamic light scattering (DLS) measured the hydrodynamic diameter of particles in the protein-detergent solution diluted ten-fold in 100 mM NaCl as 9.2+/−0.1 nm (peak containing 98.2% of particle volume). The diameter of SDS micelles in 3% SDS solutions without protein under the same experimental conditions was a single peak at 5.5+/−0.2 nm. No SDS micelles were detected in the SDS—protein solutions confirming that the majority of the SDS was bound to the protein.
Proteins were refolded by removing SDS using KCl. […] The protein solutions were dialysed against water to reduce salt levels then concentrated by dialysis against PEG8000, resulting in 3-4% protein and 0.2-0.4% SDS concentration.

B1: Honeybee silk protein Xenospira3 (AmelF3), recombinant, without signal peptide (other)
chain: GVEEFKSSATEEVISKNLEVDLLKNVDTSAKRRENGAPVLGKNTLQSLEKIKTSASVNAKAAAVVKASALALAEAYLRASALSAAASAKAAAALKNAQQAQLNAQEKSLAALKAQSEEEAASARANAATAATQSALERAQASSRLATVAQNVASDLQKRTSTKAAAEAAATLRQLQDAERTKWSANAALEVSAAAAAAETKTTASSEAANAAAKKAAAIASDADGAERSASTEAQSAAKIESVAAAEGSANSASEDSRAAQLEASTAARANVAAAVGDGAIIGLGEEAGAAAQLLAQAKALAEVSSKSENIEDKKF
notes: The cloning primer may add an N-terminal Met
**Q.** Does B1 bind?
**A.** Result: binds
